From the domain aggregation screens of Martell et al. (2025)

Assay: soluble fraction after stress (log2 fold change); higher = more stays soluble; pooled small domains, quantitative proteomics
Details: stress: 75 degC
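Further: 20 min heating vs room temperature control held 20 min.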

Sequence | soluble fraction (log2)
HMDESIPVITYKDSVYANPKAFADAHKLPYKSLHNALSKARKEGKVRFMYKQYNFHLDNNGYIVAVS | -1.22
HMDESLLDYALREIKARIQNGTYPPGTKLSTQEISDSLGISRTPVVAAINRLVAQGVAEAIPRRGTIVAR | -0.19
HMDETFTITFDPNGGTLNGSKTKTVSLGDIVYGKLPTASKTGYSFIGWFTEKEGGEQISSATKIIASDLTL | 0.0518
HMDETPESIFAKANELYPKYIKYFYTEQEYYSKVEEYINLYEFQKNSTYILGKDLEEFLEEYITNKQ | -1.61
HMDEWDDGDKPKLKITLYADDDYYFASGFSKSSVSLSGSDGTVTSVSRSSSDTLIVYVTLDALD | 0.033
HMDEYILTLDEVKELLKSKDYDDLKNVLKWSNKFQKDTIIQTAISEKVSDANVINIIKEITGQDITSLIV | -0.0278
HMDEYTREQFVADMEEGRVREVTIHPNSEVPTGYIRVELANGADMKLYVTDIVEAEELVRSYGFDPPVRDV | 0.212
HMDFDFHALGREIKRKRKDKGWTQEYLAQLLDRTPRSIMYMENRGQHPSLNILFKIATLLEISIDQFFF | -0.114
HMDFDQELFDKIVEATMDEARAAMDTDDKNVREERWNKLIEHWHELFLEDYPEMDKYLEEITYKFQKNPAT | -0.662
HMDFEVGTVKWFNTKKGYGFITRDQGEDIFVHFRNIKGQGRRSLSDGERVSFVVTHGDKGLQADQVSP | -1.25
HMDFFTAAPEEDEIGKRIDVYIAEYKEELSRSRVQKLIENGLVTVNGKAVKSNYKLRKGDILEVEIPDPE | -0.0998
HMDFGPDSAAPLADGSAPEGFDVKGNADSMLYHEPDGRWYDATVAEVWFRTAEAAQAAGFTKAGS | -0.119
HMDFNNQLKRIRESNGLTQEQLAKILNVSRQSISSWEVGRNFPDLEMIVIISKEFNISLDQLIMG | -3.02
HMDFQTDVFISRFAELKKESGETNKDLQDVFELSLSALINYQTGKRIPDIAFLHKLAQHFGVSADYLLGLS | -0.277
HMDFRQALNTSADSDANKVALLESIVKGKYVSSTVNLLRRVITLRRGRSIDATLAAYSHYVSIR | 0.155
HMDFSVTIKGTSFPVMVSLKKMKQVRLKVFPSGEIKLSAPVGTPEKWIVEYLNDKMSWIEEKMDLFVQ | -1.26
HMDFTMSEIQTAMAALPRGYRTVVQLYLVDGYSHKEIAEMLGVDVNTSKSQLSRGRKQLQAFLAAMS | -0.152
HMDFYIVLGVDRAASVSDVKRAYRRLARKYHPDINPGDREAEAFFLRVTEAYETLIDPDRRQDYDVNG | -1.06
HMDFYPARVKWFNKSKGFGFANIFKSNDDIFLHIETLKRSGLSDLETGEAIVLTVTEGPRGKMADTILTWD | -0.531
HMDGDFGMNLDWQPSEHFPTLARQAGIPADHITAEAIAEFRSYWIGQGKAMTQYQWDHKLLTNLKATKTR | -1.19
HMDGEAQTYVEYGKWFPADLPLEAVRQLADGVPVTKELVAALNPRRSEWEEIKAGLDKIGYPNELL | -0.0206
HMDGEITLYKVVGYIKASDFDDKKNGFVIADDYITKRQAEDTMYEWKRKKTYPYLEIKEYKGKDPYK | 0.255
HMDGLAEQLFNILREELESGDYKPGQKLMSESALAQKYGVSRLTVRAAIARLSALDYVETRNGEGSFVKKR | -1.78
HMDGLDFIINENGKIANINEEGELLAKGENIMLGYYKDSISTNNTINNGWLHTGDIAKIDNDGFIYL | -0.0909
HMDGMNEELYQKFFALVGNPDEGKRISQAKAAQALGYSSAVVSAYKNRTYNGNIKAFEDAVQAWLKREERR | 0.17

Sequence | soluble fraction (log2)
HMDGPELYESMKAIVPDQLDRTIFLTGGAYTPRAQEFLARVPNQQMEKPFEFEALRSLLARLT | 0.128
HMDGTEVTTEPPGAQVEYEGKQFGPTPARIPGLVAGKSLHITLPGYLEVKPKIKAVPKDGEPLSFTLTAI | -0.0613
HMDGVEVVTKPAGAQIEFAGKSYGPSPVHIPGLVAGSQLILRLPGFQAATVRLRTAPDKSKALEYTLQPA | -0.278
HMDGVLVYKEGMTVADMATGLGKTIAQVVMKLMQLGIMANQNQSVDRETVELVALDFGYELKD | -2.27
HMDGVSAEAVKSHIKTLIDGEGAKILSDDTLVDLLNAKGFDIARRTVAKYREAMGIGSSVQRRRQKKMG | 0.00787
HMDGYLQLASKKNELITQLKTPPKPKRLFKDFEDRVYLITEYKVFVVSIFQNEFRLRPVNKDDFYRYTT | 0.293
HMDGYTAVDKAVSDQYYTKENQLYFVSMGNFFSLGAKKIEGADISSFQILTTEYARDLQHLYFNGKV | -0.224
HMDHFFSKYDSIVNHTVQKKETLFGISKKYGLTINEVIKFNPGIQIDKLKRRSVLIIPLMKKN | -1.07
HMDHKSALQELLAPRGLQPSYRLVEEAGPAHARVFTSEVSVDGVARGSGTGTTIKMSEQAAAREALASLG | 0.249
HMDHKSQLQEWAQSTLGETPRYVTIAETGPDHDKELTVELIIGRKSYSIAKGKSKKQAEQSAARIALGLLM | -1.99
HMDHKSSYWSVKEANLFPELLKQFGSQWSLISDKLGTKSTTMVRNYYQRNAAQLGWKSVVEEADFKRNA | -0.585
HMDHTYKHIELTGSSEKGIEEAVQNALAKASESVQNMRWLEVTDTRGHIEDGRVAHWQVTVKVGFTL | 0.213
HMDHVEDRMVLEVVLKKLTEEERRIVMLHAVSGLKHREIAKALDIPLSTVLSKYKRTLKKLEAYLMEME | -1.72
HMDIADKLTKREFEIFIAIAMNKSRFDIANELGLSAKTVSNGLTVIKRKLNAVPSQFSAIAAKHGYIG | -2.68
HMDIAYFSNAELNDAFIQFLNMRQEAGKQLNGYQIQILTEKLERVADTDEDRISAVKNAIAGGWSNFYPPK | -0.607
HMDIDASEVRGIISQYINEPDGRVSYILETIQKKYRYLPEEAIRIVAQELEVPLTQLFGVATFYAAFSL | 0.188
HMDIDLNTIKKITLDDIHAFLSYLTTTYHSKAATRARKASSIRVFFNYLSAKANLIEVNPAQNLETPKLD | 0.165
HMDIEELLSRSTDRLSRQTEIRRLLADAQGRPNISSLARRFKVARRTVIRDLQELIRRGEVPPEIYPK | -1.1
HMDIEFSDELRTFIDEWSKKEGGLVMMLHRIQNEYGFIPRTAAEKLSLISGIPLARIYGVITFYHFFKT | -0.499
HMDIGNKIKELRTEQKMTQSDLAERLGVTKSSISSYENGSRLPSYDILLKIARIFKVSTDILLG | -1.47
HMDIGTRQRIIAAAMELFRQKGMDGMSMRELAERAGVNKGLLHYYFTTKEAIFREVFVHQVEM | -0.084
HMDIIIEEGIDESLSTDDAILDLLGRASDAFSNAQKALLEGDLGSYQKLIEQAERLVKKATELLGENN | -0.377
HMDIMNNILINRIKKILTEQNMSKADLSRLTGISNSSLSEYLNGKYEPKQDKIALIAKALHVSPAWLMGF | -1.22
HMDINNTNFSRDVDNLLQNEEFIKWRIFRTKEWEDYWENFRKENPHMEDALQEAISRFNAVK | 0.264
HMDINVDILPLLKTMTDTLRKVIELDIPFLKDARVQRVNSLDELLLRADITTAEKFRKVFEAYQIEADFGK | -0.976
